Test results from patent publication US20050003397A1.

Target: BAT monoclonal antibody
Test: competition phage ELISA; BAT (6 µg/ml) pre-incubated with increasing synthetic Peptide A, binding to immobilized Peptide A phage read

B1: Peptide A (synthetic peptide of SEQ ID NO 1) (peptide)
peptide: PRRIKPRKIMLQ
IC50: 660 nM
